± gives the uncertainty stated by the source.
Assay: protein stability index of a GFP-peptide fusion (yeast GPS) (PSI 1-4); higher = more stable; sorted into four equal gates, so the index is relative within each strain
Procedure, shortened: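 Yeast carrying a pooled library were grown to mid-log phase in leucine-free medium. Each library plasmid expresses Cherry and has a tiled 17-residue yeast protein peptide fused downstream of GFP. Cells were sorted into four equal gates by GFP/Cherry ratio, and plasmids from each gate were PCR-amplified, Illumina-sequenced and assigned to strains by barcode. Summing, across gates, the read frequency times the gate number gave each peptide's protein stability index.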

| Sequence | protein stability index (doa10∆) | protein stability index (pdr5∆) | protein stability index (san1∆) | protein stability index (ubr1∆) |
| --- | --- | --- | --- | --- |
| AILLIINLTQTYGISVV [NUT1] | 1.53 ± 0.049 | 1.34 ± 0.043 | 1.7 ± 0.081 | 1.43 ± 0.04 |
| PSAFNFTGNNSTPGGGS [YOR098C/NUP1] |  |  | 3.14 ± 0.13 |  |
| FSSLAISEINFLHESSF [CSI1] | 2.21 ± 0.038 | 2.56 ± 0.035 | 2.26 ± 0.047 | 2.53 ± 0.039 |
| LNLDSLLVDQKQLNSLR [SMD1] | 2.51 ± 0.051 | 2.79 ± 0.059 | 2.98 ± 0.067 | 2.51 ± 0.062 |
| STLKSFFTNPNKKRPSS [YOR098C/NUP1] | 2.79 ± 0.052 | 3.06 ± 0.049 | 3.08 ± 0.043 | 2.91 ± 0.045 |
| ITVTAKQQPTMQANKLD [SWI3] | 3.19 ± 0.096 | 3.15 ± 0.071 | 2.82 ± 0.07 | 3.01 ± 0.055 |
| QKQWDDIAFVLNNLPYK [YCS4] | 2.48 ± 0.077 | 3.09 ± 0.082 | 2.97 ± 0.11 | 3.18 ± 0.086 |
| PKSASNTSSKRQKKKPT [IRR1] | 2.78 ± 0.069 | 2.61 ± 0.072 | 2.65 ± 0.049 | 2.96 ± 0.072 |
| FTNPSIVKVFHGAFMDI [RRP6] | 1.16 ± 0.084 | 1.57 ± 0.062 | 1.63 ± 0.11 | 1.38 ± 0.049 |
| QGAKTYLERTLDTFIKI [PRE5] | 3.03 ± 0.081 | 3.18 ± 0.068 | 2.81 ± 0.067 | 3.21 ± 0.058 |
| LDSNFNLQREIDQAHVS [RPN14] | 2.49 ± 0.045 | 2.75 ± 0.061 | 2.56 ± 0.059 | 2.65 ± 0.054 |
| LAKSGSTEETTANTGTI [TAF14] | 2.61 ± 0.08 | 2.27 ± 0.089 | 2.19 ± 0.14 | 2.39 ± 0.091 |
| QAQQAQQAQARLQQGRR [SNF2] | 3.02 ± 0.08 | 3.11 ± 0.092 | 2.88 ± 0.048 | 3.02 ± 0.061 |
| FVRQAAMIALSMILIQQ [RPN2] | 1.35 ± 0.083 | 1.75 ± 0.17 | 1.48 ± 0.19 | 1.82 ± 0.14 |
| MENILQRCKSNAISLQL [YIL149C/MLP2] | 1.9 ± 0.046 | 2 ± 0.048 | 2.05 ± 0.071 | 1.57 ± 0.046 |
| VSTAAAATVRSTIRRLR [RPL43A] | 2.54 ± 0.076 | 2.8 ± 0.07 | 2.13 ± 0.1 | 2.95 ± 0.057 |
| FKQAKERVMKNKVEENL [RPT2] | 3.11 ± 0.11 | 3.27 ± 0.061 | 3 ± 0.14 | 3.29 ± 0.11 |
| LAKIKEEEMAPYYKYLC [RPN7] | 1.28 ± 0.091 | 1.74 ± 0.25 |  | 1.37 ± 0.2 |
| EEKGWVPVTKLGRLVKA [RPS2] | 3.45 ± 0.086 | 3.44 ± 0.13 | 3.51 ± 0.072 | 3.48 ± 0.072 |
| LRLFNAPDSEYLCFILS [SNF2] | 2.28 ± 0.044 | 2.17 ± 0.044 | 2.15 ± 0.042 | 1.94 ± 0.031 |
| SFNESQRGEDDLTFKLA [RPO21] |  |  | 3.54 ± 0.15 | 1.09 ± 0.14 |
| TEQQIEVPEGVTVSIKS [RPL9A] | 2.46 ± 0.069 | 2.3 ± 0.051 | 1.99 ± 0.073 | 2.85 ± 0.043 |
| RKLMEMENILQRCKSNA [YIL149C/MLP2] | 2.04 ± 0.072 | 2.39 ± 0.086 | 2 ± 0.096 | 1.38 ± 0.095 |
| NAKDIQIPVYDTFDGSD [FAS1] | 2.47 ± 0.078 | 2.56 ± 0.07 | 2.07 ± 0.052 | 2.29 ± 0.064 |
| FSEEKAEEFDFNVPVVS [YAR002W/NUP60] | 2.48 ± 0.18 | 1.34 ± 0.16 | 1.3 ± 0.13 | 1.15 ± 0.12 |
| INGWELTKAQKYLDQVL [RPL17B] | 2.74 ± 0.2 | 2.9 ± 0.17 | 2.86 ± 0.1 | 2.74 ± 0.063 |
| VAAAGITASTLLYADSL [CYT1] | 1.89 ± 0.068 | 2.12 ± 0.078 | 1.75 ± 0.14 | 1.93 ± 0.078 |

From the supplement of paper PMC9732359
